The text below walks through data of patent US20240383985A1 (published 2024).

Assay [1] addresses T1, CD38 naturally expressed on Daudi cells (human, UniProt P28907 1-300). As to the kind of experiment: FACS; FIG. 24. A general note: A flow cytometer gives signals particle by particle.
Assay [2] deals with T1, CD38 naturally expressed on Daudi cells. Description: FACS; FIG. 23.

Usually EC50 stands for the midpoint of the concentration-response curve.

B1: QP42764325 (antibody)
chain 1: DIQMTQSPSSLSASVGDRVTITCKASQDVGIAVAWYQQKPGKVPKLLIYWASTRHTGVPDRFSGSGSGTDFTLTISSLQPEDVATYYCQQYSSYPYTFGQGTKVEIKRTVAAPSVFIFPPSDEQLKSGTASVVCLLNNFYPREAKVQWKVDNALQSGNSQESVTEQDSKDSTYSLSSTLTLSKADYEKHKVYACEVTHQGLSSPVTKSFNRGEC
chain 2: EVQLVESGGGLVQPGGSLRLSCAASGFDFSRYWMSWVRQAPGKGLEWIGEINPDSSTINYAPSLKDKFIISRDNAKNSLYLQMNSLRAEDTAVYYCARPDGNYWYFDVWGQGTLVTVSSASTKGPSVFPLAPSSKSTSGGTAALGCLVKDYFPEPVTVSWNSGALTSGVHTFPAVLQSSGLYSLSSVVTVPSSSLGTQTYICNVNHKPSNTKVDKKVEPKSCDKTHTCPPCPAPEAAGGPSVFLFPPKPKDTLMISRTPEVTCVVVDVSHEDPEVKFNWYVDGVEVHNAKTKPREEQYNSTYRVVSVLTVLHQDWLNGKEYKCKVSNKALPAPIEKTISKAKGQPREPQVYTLPPSREEMTKNQVSLSCAVKGFYPSDIAVEWESNGQPENNYKTTPPVLDSDGSFFLVSKLTVDKSRWQQGNVFSCSVMHEALHNRYTQKSLSLSPGK
chain 3: not shown
chain 4: not shown
Consider B1, for which the EC50 in assay [1] amounted to 8.56 nM; in assay [2], 10.2 nM.

B2: QP42764279 (antibody)
chain 1: DIQMTQSPSSLSASVGDRVTITCKASQDVGIAVAWYQQKPGKVPKLLIYWASTRHTGVPDRFSGSGSGTDFTLTISSLQPEDVATYYCQQYSSYPYTFGQGTKVEIKRTVAAPSVFIFPPSDEQLKSGTASVVCLLNNFYPREAKVQWKVDNALQSGNSQESVTEQDSKDSTYSLSSTLTLSKADYEKHKVYACEVTHQGLSSPVTKSFNRGEC
chain 2: EVQLVESGGGLVQPGGSLRLSCAASGFDFSRYWMSWVRQAPGKGLEWIGEINPDSSTINYAPSLKDKFIISRDNAKNSLYLQMNSLRAEDTAVYYCARPDGNYWYFDVWGQGTLVTVSSASTKGPSVFPLAPSSKSTSGGTAALGCLVKDYFPEPVTVSWNSGALTSGVHTFPAVLQSSGLYSLSSVVTVPSSSLGTQTYICNVNHKPSNTKVDKKVEPKSCDKTHTCPPCPAPEAAGGPSVFLFPPKPKDTLMISRTPEVTCVVVDVSHEDPEVKFNWYVDGVEVHNAKTKPREEQYNSTYRVVSVLTVLHQDWLNGKEYKCKVSNKALPAPIEKTISKAKGQPREPQVYTLPPSREEMTKNQVSLSCAVKGFYPSDIAVEWESNGQPENNYKTTPPVLDSDGSFFLVSKLTVDKSRWQQGNVFSCSVMHEALHNRYTQKSLSLSPGK
chain 3: not shown
chain 4: not shown
In turn, B2 gave an EC50 in assay [2] of 8.99 nM.
